The target of the test is Hydrophobin-BMP2 fusion protein (UniProt P12643). The test is described as follows: SDS-PAGE and Western blot.

One may read the stoichiometry N as the number of molecules, sites or subunits per partner or assembly. As for “Hydrophobin-BMP2 fusion protein (from UniProt P12643 283-396)”, the stoichiometry N amounted to 2.

For the origin of these results see PMC8193172.
